The values below come from patent US20150352233A1.

The term IC50 denotes the concentration needed to halve the response being measured.

The target of the assay is Membrane Preparation Recombinant Human GLP-1 (GLP-1R) (human) (UniProt P43220).

Take “non-labeled exendin4 (peptide; other documents disagree on this pair)”: the IC50 amounted to 0.19 nM.
